B1: Hairpin Ribozyme (parent)
chain: GUCCUCUUUCACGUGCGCGUGAAAGAGAGAAGUGAACCAGAGAAACACACGUUGUGGUAUAUUACCUGGUA

Variants of: B1
Experiment: self-cleavage, relative activity (ratio to wild type); higher = more cleavage; co-transcriptional

For GUCCUCUUUCACGUGCGCGUGAAAGAGAGAAGUGAACCAGACAAACACACGUUGUGGUAUAUAACCUGGUA, which self-cleavage is on record?
The self-cleavage was 0.18.

With GUCCUCUUUCACGUGCGCGUGAAAGAGAGAAGUGAACCAGAGAAACACAGGUUGUGGAAUAUUACCUGGUA as the variant, how does the self-cleavage read?
The self-cleavage was 0.0745.

With GUGCUCUUUCACGUGCGCGUGAAAGAGAGAAGUGAACCAGAGAAACACACGUUCUGGUAUAUUACCUGGUA as the variant, how does the self-cleavage read?
The self-cleavage was 0.126.

Which self-cleavage does the source give for GUCCUCUUUCACGUGCGCGUAAAAGAAAGAAGUGAACCAGAGAAACACACGUUGUGGUAUAUUACCUGGUA here?
The self-cleavage was 0.346.

Which self-cleavage does the source give for GUCCUCUUGCACGUGCGCGUGAAAGAGAGAAGAGAACCAGAGAAACACACGUUGUGGUAUAUUACCUGGUA here?
Its self-cleavage is 0.102.

With GUCCUCUUUCACGUGCGCGUGAAAGAGAGAAGUGAACCAGAGAAACAAAAGUUGUGGUAUAUUACCUGGUA as the variant, how does the self-cleavage read?
The self-cleavage was 0.188.

With GUCCUCUUUCACGUGCGCGUGAAAGAGAGAAGCGAACCAGAGAAACACACGUUGUUGUAUAUUACCUGGUA as the variant, how does the self-cleavage read?
Its self-cleavage is 0.26.

With GUCCUCUUUCACGUGCGCGCGAAAGAGAGAAGUGAACCAGAGAAACACACGUUGUGGUAUUUUACCUGGUA as the variant, how does the self-cleavage read?
The self-cleavage was 0.21.

For GUCCUCUUUCACGUGCGCGUGAAAGAGAUAAGUGAACCAGAGAAACACACGUUGUAGUAUAUUACCUGGUA, which self-cleavage is on record?
Its self-cleavage is 0.162.

For GUCCUCUUUCACGUGCGCGUGAACGAGAGAAGUGAACCAGAGAAACACACGUUGUGGUAUAUUUCCUGGUA, which self-cleavage is on record?
The self-cleavage was 0.172.

For GUCCUCUUUCCCGUGCGCGUGAAAGAGAGAAGUGAACCAGAGAAACACAUGUUGUGGUAUAUUACCUGGUA, which self-cleavage is on record?
Its self-cleavage is 0.247.

With GUCCUCUUUCGCGUGCGCGUGAAAGAGAGAAGUGAACCAGAGAAACACAAGUUGUGGUAUAUUACCUGGUA as the variant, how does the self-cleavage read?
The self-cleavage was 0.196.

For GUCCUCUUCCACGUGCGCGUGAAAGAGAGAAGUGAACCAGAGAAACACACGUUGUGGUAUAUUUCCUGGUA, which self-cleavage is on record?
Its self-cleavage is 0.0987.

For GUCCUCUUGCUCGUGCGCGUGAAAGAGAGAAGUGAACCAGAGAAACACACGUUGUGGUAUAUUACCUGGUA, which self-cleavage is on record?
Its self-cleavage is 0.566.

For GUCCUCUCUCACGUGCGCGUGAAAGAGAGACGUGAACCAGAGAAACACACGUUGUGGUAUAUUACCUGGUA, which self-cleavage is on record?
Its self-cleavage is 0.0859.

Which self-cleavage does the source give for GUCCUCUUUCACGUGAGCGUGAUAGAGAGAAGUGAACCAGAGAAACACACGUUGUGGUAUAUUACCUGGUA here?
The self-cleavage was 0.727.

For GUCCUCUUUCACGUGCGCGUGAAAGAGAGAAGUCAACCAGAGAAACACACGAUGUGGUAUAUUACCUGGUA, which self-cleavage is on record?
The self-cleavage was 1.66.

For GUCCUCUUUCACGUGCGCGUGAAAGAGAGAAGUGCACCAGAGAAGCACACGUUGUGGUAUAUUACCUGGUA, which self-cleavage is on record?
The self-cleavage was 0.083.

For GUCCUCUUUCACGUGCGCGUGAAAGAGAGAAGUUAACCAGAGAAACACGCGUUGUGGUAUAUUACCUGGUA, which self-cleavage is on record?
Its self-cleavage is 1.49.

For GUCCUCUUUCACGUGCGAGUGAAAGCGAGAAGUGAACCAGAGAAACACACGUUGUGGUAUAUUACCUGGUA, which self-cleavage is on record?
The self-cleavage was 0.527.

For GUCCUCUUUCACGUGCGCGCGAAAGAGAGAAGUGAACCAGAGAAACACACGUUGUGGUAUAUUGCCUGGUA, which self-cleavage is on record?
The self-cleavage was 0.558.

With GUCCUCUUUCACGUCCGCGUGAAAGAGAGAAGUGAACCAGAGAAACACACGUUGUGGUAUAUUACCUGGUG as the variant, how does the self-cleavage read?
The self-cleavage was 0.98.

For GUCCUCUUUCACGUGCGCGUGAAAGAGAGAAGUGAACCAGAGAAACACACGUUGCGGUAAAUUACCUGGUA, which self-cleavage is on record?
The self-cleavage was 0.168.

Which self-cleavage does the source give for GUCCUCUUUCACGUGCGCGUGAAAGAGAGAAGUGUACCAGAGAAACACACGUUGUGGUAUAUUACCUGGAA here?
The self-cleavage was 0.703.

Which self-cleavage does the source give for GUCCUCUUUCACGUGCGCGUGAAAGAGAGAAGUGAACCAGAGAAAAACACGUUGUGGUAUAUUACCUGGGA here?
The self-cleavage was 0.0934.

Which self-cleavage does the source give for GUCCUCUUUCGCGUGCGCGUGAAAGAGAGAAGUGAACCAGAGAAACACACGUUGUGGUAUAUUACAUGGUA here?
Its self-cleavage is 0.29.

With GUCCUCUCUCACGUGCGCGUGAAAGAGAGAAGUUAACCAGAGAAACACACGUUGUGGUAUAUUACCUGGUA as the variant, how does the self-cleavage read?
Its self-cleavage is 1.32.

For GUCCUCUUGCACGUGCGCGUGAAAGAGAGAAGUGAACCAGAGAAACACACGUUGUGGUUUAUUACCUGGUA, which self-cleavage is on record?
The self-cleavage was 0.101.

For GUCCUCGUUCACGUGCGCGUGAAAGAGAGAAAUGAACCAGAGAAACACACGUUGUGGUAUAUUACCUGGUA, which self-cleavage is on record?
Its self-cleavage is 0.173.

With GACCUCUUUCACGUGCGCGUGAAAGAGAGAAGUGAACCAGAGAAACAAACGUUGUGGUAUAUUACCUGGUA as the variant, how does the self-cleavage read?
The self-cleavage was 0.159.

Which self-cleavage does the source give for GUCCACUUUCACGUGCGCGUGAAAGAGAGAAGUGAACCAGAUAAACACACGUUGUGGUAUAUUACCUGGUA here?
The self-cleavage was 0.275.

For CUCCUCUUUCACGCGCGCGUGAAAGAGAGAAGUGAACCAGAGAAACACACGUUGUGGUAUAUUACCUGGUA, which self-cleavage is on record?
Its self-cleavage is 0.

For GUCCUCUUUCACGUGAGCGUGGAAGAGAGAAGUGAACCAGAGAAACACACGUUGUGGUAUAUUACCUGGUA, which self-cleavage is on record?
Its self-cleavage is 0.617.

With GUCCUCUUUCACGUGCGCGUGAAAGAGAGAAGAGAACCAGAGAAACACACGUUGUGGUAUAUUACUUGGUA as the variant, how does the self-cleavage read?
Its self-cleavage is 0.151.

For GUCCUCUUUCACGUGCGCAUGAAAGAGAGAAGUGAACCACAGAAACACACGUUGUGGUAUAUUACCUGGUA, which self-cleavage is on record?
Its self-cleavage is 0.0669.

With GUCCUCUUUCACGUGCCCGUGAAAGAGAGAAGUGAACCAGAGAAACACACGUUGUGGUAUAUUAUCUGGUA as the variant, how does the self-cleavage read?
The self-cleavage was 0.24.

Which self-cleavage does the source give for GUCCUCUUUCACGUGCGCGCGAAAGAGAGAAGUGAACCAGAGAGACACACGUUGUGGUAUAUUACCUGGUA here?
Its self-cleavage is 0.204.

With GUCCUCUUUCACGUGCGCGUGAAAGAGAGAGGUGAACCAGAUAAACACACGUUGUGGUAUAUUACCUGGUA as the variant, how does the self-cleavage read?
Its self-cleavage is 0.19.
